According to article PMC5796856 (Molecular microbiology, 2018):

Key:
FtsA [1] = target: T1, FtsA (Escherichia coli, UniProt P0ABH0); test: mant fluorescence titration; type: binding
T1 sequence (P0ABH0 1-420): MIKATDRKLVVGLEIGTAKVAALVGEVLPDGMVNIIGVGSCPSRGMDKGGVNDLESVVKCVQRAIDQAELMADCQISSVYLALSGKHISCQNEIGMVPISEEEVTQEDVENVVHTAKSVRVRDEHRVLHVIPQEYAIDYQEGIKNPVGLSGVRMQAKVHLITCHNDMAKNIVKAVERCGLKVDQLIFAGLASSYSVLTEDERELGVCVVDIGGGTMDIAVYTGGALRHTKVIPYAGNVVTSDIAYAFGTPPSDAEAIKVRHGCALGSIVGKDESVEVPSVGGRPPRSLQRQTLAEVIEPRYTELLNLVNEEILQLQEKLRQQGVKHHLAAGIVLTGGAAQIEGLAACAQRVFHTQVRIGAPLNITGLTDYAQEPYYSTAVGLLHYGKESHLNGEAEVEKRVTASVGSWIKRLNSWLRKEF

FtsA [2] = target: FtsA (Escherichia coli, UniProt P0ABH0, K86A); test: mant fluorescence titration; type: binding
FtsA (E. coli) = FtsA (E. coli) (UniProt P0ABH0); test: co-sedimentation
FtsA [3] = target: T2, FtsA (E. coli, UniProt P0ABH0 1-420); test: confocal fluorescence microscopy of recruitment to vesicles in vitro
T2 sequence (looked up): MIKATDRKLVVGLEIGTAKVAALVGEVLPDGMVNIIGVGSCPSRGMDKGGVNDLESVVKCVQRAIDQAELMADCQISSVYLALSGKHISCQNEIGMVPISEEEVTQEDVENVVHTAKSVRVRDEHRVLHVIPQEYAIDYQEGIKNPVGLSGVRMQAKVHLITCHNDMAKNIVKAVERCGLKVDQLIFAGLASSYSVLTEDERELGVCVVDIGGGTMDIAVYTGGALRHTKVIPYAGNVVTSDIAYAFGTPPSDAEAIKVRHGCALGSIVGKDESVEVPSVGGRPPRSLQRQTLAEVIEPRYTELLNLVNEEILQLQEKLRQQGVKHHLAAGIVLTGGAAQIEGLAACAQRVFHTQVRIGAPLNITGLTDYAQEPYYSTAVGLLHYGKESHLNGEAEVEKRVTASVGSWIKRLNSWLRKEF

[4] = target: the molecule itself; test: sedimentation of polymers by ultracentrifugation
SEC = target: the molecule itself; test: SEC

FtsA (Escherichia coli, UniProt P0ABH0, K86A), sequence (P0ABH0 whole entry K86A): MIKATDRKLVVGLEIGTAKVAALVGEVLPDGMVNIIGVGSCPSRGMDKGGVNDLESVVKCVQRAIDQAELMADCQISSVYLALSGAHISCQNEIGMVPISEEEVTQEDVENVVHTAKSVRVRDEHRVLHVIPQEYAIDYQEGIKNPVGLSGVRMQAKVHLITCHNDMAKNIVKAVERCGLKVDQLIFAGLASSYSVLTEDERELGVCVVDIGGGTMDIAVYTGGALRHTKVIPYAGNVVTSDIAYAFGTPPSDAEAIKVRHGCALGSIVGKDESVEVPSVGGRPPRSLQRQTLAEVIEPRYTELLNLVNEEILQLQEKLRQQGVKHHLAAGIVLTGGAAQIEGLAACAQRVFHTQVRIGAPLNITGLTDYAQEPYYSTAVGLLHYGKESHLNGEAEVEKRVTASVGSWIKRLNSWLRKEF

Molecule: CNc1ccccc1C(=O)O[C@H]1[C@@H](O)[C@H](n2cnc3c(N)ncnc32)O[C@@H]1CO[P@@](=O)(O)O[P@](=O)(O)OP(=O)(O)O [mant-ATP]
- Kd (FtsA [1]): 26.2 ± 3 µM
- Kd (FtsA [2]): 27.9 ± 0.5 µM

Molecule: FtsZ(R379E) (from UniProt P0A9A6 1-383) (natural protein)
- percent of FtsZ in the pellet (FtsA (E. coli)): 35.6%

B1: FL-FtsZ (natural protein, E. coli, UniProt P0A9A6 1-383, looked up)
chain: MFEPMELTNDAVIKVIGVGGGGGNAVEHMVRERIEGVEFFAVNTDAQALRKTAVGQTIQIGSGITKGLGAGANPEVGRNAADEDRDALRAALEGADMVFIAAGMGGGTGTGAAPVVAEVAKDLGILTVAVVTKPFNFEGKKRMAFAEQGITELSKHVDSLITIPNDKLLKVLGRGISLLDAFGAANDVLKGAVQGIAELITRPGLMNVDFADVRTVMSEMGYAMMGSGVASGEDRAEEAAEMAISSPLLEDIDLSGARGVLVNITAGFDLRLDEFETVGNTIRAFASDNATVVIGTSLDPDMNDELRVTVVATGIGMDKRPEITLVTNKQVQQPVMDRYQQHGMAPLTQEQKPVAKVVNDNAPQTAKEPDYLDIPAFLRKQAD
modifications: Alexa Fluor 488 label
- binding result (FtsA [3]): binds

B2: FtsZ (natural protein, E. coli, UniProt P0A9A6 1-383, looked up)
chain: MFEPMELTNDAVIKVIGVGGGGGNAVEHMVRERIEGVEFFAVNTDAQALRKTAVGQTIQIGSGITKGLGAGANPEVGRNAADEDRDALRAALEGADMVFIAAGMGGGTGTGAAPVVAEVAKDLGILTVAVVTKPFNFEGKKRMAFAEQGITELSKHVDSLITIPNDKLLKVLGRGISLLDAFGAANDVLKGAVQGIAELITRPGLMNVDFADVRTVMSEMGYAMMGSGVASGEDRAEEAAEMAISSPLLEDIDLSGARGVLVNITAGFDLRLDEFETVGNTIRAFASDNATVVIGTSLDPDMNDELRVTVVATGIGMDKRPEITLVTNKQVQQPVMDRYQQHGMAPLTQEQKPVAKVVNDNAPQTAKEPDYLDIPAFLRKQAD
- binding result [4]: binds

B3: FtsZ(R379E) (natural protein, E. coli, UniProt P0A9A6 1-383, looked up)
chain: MFEPMELTNDAVIKVIGVGGGGGNAVEHMVRERIEGVEFFAVNTDAQALRKTAVGQTIQIGSGITKGLGAGANPEVGRNAADEDRDALRAALEGADMVFIAAGMGGGTGTGAAPVVAEVAKDLGILTVAVVTKPFNFEGKKRMAFAEQGITELSKHVDSLITIPNDKLLKVLGRGISLLDAFGAANDVLKGAVQGIAELITRPGLMNVDFADVRTVMSEMGYAMMGSGVASGEDRAEEAAEMAISSPLLEDIDLSGARGVLVNITAGFDLRLDEFETVGNTIRAFASDNATVVIGTSLDPDMNDELRVTVVATGIGMDKRPEITLVTNKQVQQPVMDRYQQHGMAPLTQEQKPVAKVVNDNAPQTAKEPDYLDIPAFLEKQAD
- binding result [4]: binds

B4: FtsA(ΔMTS) (domain or fragment, E. coli, UniProt P0ABH0 1-404, looked up)
chain: MIKATDRKLVVGLEIGTAKVAALVGEVLPDGMVNIIGVGSCPSRGMDKGGVNDLESVVKCVQRAIDQAELMADCQISSVYLALSGKHISCQNEIGMVPISEEEVTQEDVENVVHTAKSVRVRDEHRVLHVIPQEYAIDYQEGIKNPVGLSGVRMQAKVHLITCHNDMAKNIVKAVERCGLKVDQLIFAGLASSYSVLTEDERELGVCVVDIGGGTMDIAVYTGGALRHTKVIPYAGNVVTSDIAYAFGTPPSDAEAIKVRHGCALGSIVGKDESVEVPSVGGRPPRSLQRQTLAEVIEPRYTELLNLVNEEILQLQEKLRQQGVKHHLAAGIVLTGGAAQIEGLAACAQRVFHTQVRIGAPLNITGLTDYAQEPYYSTAVGLLHYGKESHLNGEAEVEKRVTAS
- stoichiometry N (SEC): 2
